{
  "source": "paper PMC10998830",
  "key": {"[1]": {"tested_on": "Nc1ncnc2c1ncn2[C@@H]1O[C@H](COP(=O)(O)OP(=O)(O)OP(=O)(O)O)[C@@H](O)[C@H]1O", "experiment": "purified protein, by the assay type", "details": "25.0 °C", "description": "(§1) Kinetics and thermal denaturation data were analysed by the nonlinear regression function of SigmaPlot 14.0 (SPSS Inc.). Thermal denaturation data were fitted to Eq. (1). Substrate saturation curves at a fixed concentration of the co-substrate were fitted to Eq. (2). Initial rate data at varying concentrations of HisZ were fitted to Eq. (3). The concentration of ATPPRT at any concentration of AbHisGS and AbHisZ was calculated according to Eq. (4). Histidine dose-response data were fitted to Eq. (5). Single-turnover data with WT-AbATPPRT isotopologues were fitted to Eq. (6). Plots of kcat ratios against relative viscosity were fitted to Eq. (7). Temperature-rate profile for AbHisGS was fitted to Eq. (8). Single-turnover data with R70A-AbATPPRT isotopologues were fitted to Eq. (9). In Eqs. […] While kcats for [^13C,^15N]AbHisGS and [^2H,^13C,^15N]AbHisGS are marginally lower than for unlabelled AbHisGS and [^15N]AbHisGS, the overlapping nature of most data points in Fig. 1c disagrees with distinguishable heavy-enzyme kinetic isotope effects on kcat (^HEkcat). […] This was further probed by pre-steady-state kinetics under multiple-turnover conditions. The AbHisGS reaction had been shown not to have a burst of product formation, which is reproduced here for unlabelled AbHisGS, whose traces overlap with those for [^2H,^13C,^15N]AbHisGS (Supplementary Fig. 5). S5 Supplementary Figure 4 Substrate saturation curves for unlabelled AbATPPRT with AbHisGS purified from cultures grown in M9 and M9 with high cell density compared with previously published data (reproduced here) for unlabelled AbATPPRT with AbHisGS purified from cultures grown in LB. For the M9 and M9 high cell density curves, all data points are shown for two independent measurements, except for the previously published LB curves, where data are the mean of two independent measurements. Lines are best fit of the data to equation (2): solid line for M9 high cell density curves, long-dashed line for M9 curves, and short-dashed line for previously published LB curves. Supplementary Figure 5 Rapid kinetics of PRATP formation at 25 °C by unlabelled AbHisGS and [2H,13C,15N]AbHisGS under multiple-turnover conditions. All traces are shown for eight replicates with each isotopologue."}, "[2]": {"tested_on": "O=P(O)(O)OC[C@H]1O[C@H](OP(=O)(O)OP(=O)(O)O)[C@H](O)[C@@H]1O", "experiment": "purified protein, by the assay type", "details": "25.0 °C", "description": "as §1"}},
  "note": "Where “and” joins values, the source holds several entries; their conditions need not be identical. Equal values may be shown once.",
  "data": [
    {"substance": "AbHisGS (Acinetobacter baumannii ACICU)", "values": [
      {"measurement": "Km", "setting": "[1]", "value": "900 ± 100 µM and 800 ± 100 µM and 590 ± 30 µM"},
      {"measurement": "kcat", "setting": "[1]", "value": "0.38 s⁻¹ and 0.34 s⁻¹"},
      {"measurement": "kcat/Km", "setting": "[1]", "value": "420 M⁻¹ s⁻¹ and 580 M⁻¹ s⁻¹"},
      {"measurement": "Km", "setting": "[2]", "value": "540 ± 40 µM and 330 ± 10 µM and 420 ± 20 µM"},
      {"measurement": "kcat", "setting": "[2]", "value": "0.38 s⁻¹ and 0.34 s⁻¹"},
      {"measurement": "kcat/Km", "setting": "[2]", "value": "700 M⁻¹ s⁻¹ and 1020 M⁻¹ s⁻¹ and 810 M⁻¹ s⁻¹"}
    ]}
  ]
}
